Reference: article PMC3978657, “Early Steps in Autophagy Depend on Direct Phosphorylation of Atg9 by the Atg1 Kinase” (Molecular Cell, 2014)

T1: soluble Atg1 (Atg1 complex purified from yeast, released from the beads by TEV protease cleavage) (S. cerevisiae, UniProt P53104 1-897)
T1 construct: Atg1 serine-threonine kinase, S. cerevisiae; only Atg1 was detected (anti-Atg1 blot) in the pull-down; also called soluble Atg1 kinase; soluble Atg1 complex
T1 sequence (looked up): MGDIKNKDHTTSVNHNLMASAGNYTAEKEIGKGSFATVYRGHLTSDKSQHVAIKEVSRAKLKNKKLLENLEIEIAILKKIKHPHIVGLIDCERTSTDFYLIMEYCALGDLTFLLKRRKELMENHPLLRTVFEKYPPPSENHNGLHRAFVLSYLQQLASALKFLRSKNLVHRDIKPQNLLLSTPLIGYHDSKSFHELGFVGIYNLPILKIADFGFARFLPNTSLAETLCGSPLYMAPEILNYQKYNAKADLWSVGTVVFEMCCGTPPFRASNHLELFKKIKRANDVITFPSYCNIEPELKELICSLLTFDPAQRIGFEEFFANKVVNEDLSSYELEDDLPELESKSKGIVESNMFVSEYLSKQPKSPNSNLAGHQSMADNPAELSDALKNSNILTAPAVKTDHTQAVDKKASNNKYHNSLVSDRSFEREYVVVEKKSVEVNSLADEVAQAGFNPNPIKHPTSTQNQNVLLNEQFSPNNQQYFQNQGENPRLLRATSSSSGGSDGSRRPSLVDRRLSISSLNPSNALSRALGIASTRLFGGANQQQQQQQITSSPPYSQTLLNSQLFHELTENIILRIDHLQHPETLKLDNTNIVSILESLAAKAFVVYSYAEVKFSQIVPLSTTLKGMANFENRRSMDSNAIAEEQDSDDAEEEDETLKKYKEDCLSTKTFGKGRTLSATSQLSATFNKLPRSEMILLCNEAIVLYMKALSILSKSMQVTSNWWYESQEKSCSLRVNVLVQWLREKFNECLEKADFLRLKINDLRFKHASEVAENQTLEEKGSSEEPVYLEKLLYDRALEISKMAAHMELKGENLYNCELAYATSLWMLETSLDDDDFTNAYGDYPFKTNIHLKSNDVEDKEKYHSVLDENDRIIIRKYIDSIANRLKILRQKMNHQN


Target: T1, soluble Atg1 (Atg1 complex purified …)
Experiment: pull-down; GST fusion proteins from E. coli immobilized on beads, incubated with soluble Atg1; bound protein by anti-Atg1 western blotting
Details: both partners purified

Binder | binding result
GST-Atg9^757–997 wild-type (domain or fragment, S. cerevisiae, UniProt Q12142 757-997, looked up, Atg9, S. cerevisiae, C-terminal fragment, amino acids 757-997; also called C-terminal fragment of Atg9 (amino acids 757–997); recombinant Atg9 C-terminal fragment; source: E. coli, immobilized on beads) RENSEYVDGLGYVCKYAMFNMKNIDGEDTHSMDEDSLTKKIAVNGSHTLNSKRRSKFTAEDHSDKDLANNKMLQSYVYFMDDYSNSENLTGKYQLPAKKGYPNNEGDSFLNNKYSWRKQFQPGQKPELFRIGKHALGPGHNISPAIYSTRNPGKNWDNNNNGDDIKNGTNNATAKNDDNNGNNDHEYVLTESFLDSGAFPNHDVIDHNKMLNSNYNGNGILNKGGVLGLVKEYYKKSDVGR | binds
GST-Atg9^757–997 4A mutant (domain or fragment, S. cerevisiae, UniProt Q12142 757-997, looked up, Atg9, S. cerevisiae, C-terminal fragment, amino acids 757-997, 4A mutant; source: E. coli, immobilized on beads) RENSEYVDGLGYVCKYAMFNMKNIDGEDTHSMDEDSLTKKIAVNGAHTLNSKRRSKFTAEDHSDKDLANNKMLQAYVYFMDDYSNSENLTGKYQLPAKKGYPNNEGDSFLNNKYSWRKQFQPGQKPELFRIGKHALGPGHNISPAIYSTRNPGKNWDNNNNGDDIKNGTNNATAKNDDNNGNNDHEYVLTEAFLDSGAFPNHDVIDHNKMLNANYNGNGILNKGGVLGLVKEYYKKSDVGR | binds
